Assays:
Experiment in all cases: competitive phage ELISA
[1] = target: T1, IGF-I D12A (G1S-A70V background) displayed on phage (human; bacteriophage M13)
T1 construct: monovalent M13 phage display
T1 chain: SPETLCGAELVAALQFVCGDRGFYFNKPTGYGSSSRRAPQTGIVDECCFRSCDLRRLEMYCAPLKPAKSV
Protocol: (§1) Phage particles were harvested and resuspended in PBS buffer as described in Lowman, H. B., “Phage Display of Peptide Libraries on Protein Scaffolds,” in Cabilly, S. (ed.), Combinatorial Peptide Library Protocols (Humana Press Inc.: Totowa, N.J., 1998), pp. 249-264. Then phage concentrations were normalized to yield a maximal ELISA signal of 0.2-0.4 for each mutant (Lowman, in Cabilly, S. (ed.), supra). Threefold serial dilutions of soluble competitor were prepared on non-absorbent microtiter plates (Nunc, F, 96 wells) with binding buffer (0.5% TWEEN™ 20/PBS) containing phage at the previously-determined concentrations. […] After blocking, the plates containing immobilized target were washed with 0.05% TWEEN™/PBS buffer and subsequently incubated with 80 μl/well of the premixed phage-competitor solutions for 1 hour at room temperature. After washing, bound phage was detected with 80 μl/well of a solution containing a primary rabbit anti-phage polyclonal antibody and a secondary goat anti-rabbit monoclonal antibody-horseradish peroxidase conjugate in 0.5% TWEEN 20™/PBS. o-Phenylenediamine (Sigma) and tetramethylbenzidine (Kirkegaard and Perry) were used as chromogenic substrates, resulting in product detection at 492 and 450 nm, respectively. IC₅₀ values were determined by fitting the binding data to a generic saturation curve (Lowman, in Cabilly, S. (ed.), supra). […] Numbers in Table I represent mean +standard deviation of individually assessed IC₅₀ values.
(§2) At least two different clones of every mutant were tested.

[2] = target: T2, IGF-I L14A (G1S-A70V background) displayed on phage (human; bacteriophage M13)
T2 construct: monovalent M13 phage display
T2 chain: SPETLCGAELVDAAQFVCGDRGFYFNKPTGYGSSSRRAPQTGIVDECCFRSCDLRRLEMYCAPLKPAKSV
Protocol: as §1, §2

[3] = target: T3, IGF-I G22A (G1S-A70V background) displayed on phage (human; bacteriophage M13, not fully specified; Displayed monovalently on M13 phage as a C-terminal fusion to the gene III fragment, which is left out of the letters.)
T3 construct: monovalent M13 phage display; not shown: Display carrier: M13 gene III fragment (residues 249-406) and its junction
T3 chain: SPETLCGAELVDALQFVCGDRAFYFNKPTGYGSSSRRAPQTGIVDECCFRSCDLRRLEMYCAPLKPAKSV
Protocol: as §1, §2

[4] = target: T4, IGF-I R55A (G1S-A70V background) displayed on phage (human; bacteriophage M13)
T4 construct: monovalent M13 phage display
T4 chain: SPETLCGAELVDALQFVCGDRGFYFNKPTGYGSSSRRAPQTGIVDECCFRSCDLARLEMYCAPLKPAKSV
Protocol: as §1, §2

[5] = target: T5, IGF-I N26A (G1S-A70V background) displayed on phage (human; bacteriophage M13, not fully specified; Displayed monovalently on M13 phage as a C-terminal fusion to the gene III fragment, which is left out of the letters.)
T5 construct: monovalent M13 phage display; not shown: Display carrier: M13 gene III fragment (residues 249-406) and its junction
T5 chain: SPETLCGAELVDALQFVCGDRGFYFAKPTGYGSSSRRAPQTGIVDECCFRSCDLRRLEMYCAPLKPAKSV
Protocol: as §1, §2

[6] = target: T6, IGF-I E46A (G1S-A70V background) displayed on phage (human; bacteriophage M13)
T6 construct: monovalent M13 phage display
T6 chain: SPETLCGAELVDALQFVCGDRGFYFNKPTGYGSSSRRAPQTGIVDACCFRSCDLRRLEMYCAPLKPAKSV
Protocol: as §1, §2

[7] = target: T7, IGF-I R21A (G1S-A70V background) displayed on phage (human; bacteriophage M13, not fully specified; Displayed monovalently on M13 phage as a C-terminal fusion to the gene III fragment, which is left out of the letters.)
T7 construct: monovalent M13 phage display; not shown: Display carrier: M13 gene III fragment (residues 249-406) and its junction
T7 chain: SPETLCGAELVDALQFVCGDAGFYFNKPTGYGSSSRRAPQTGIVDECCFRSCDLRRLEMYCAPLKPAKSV
Protocol: as §1, §2

[8] = target: T8, IGF-I L64A (G1S-A70V background) displayed on phage (human; bacteriophage M13)
T8 construct: monovalent M13 phage display; not shown: M13 gene III protein fragment (residues 249-406), the phage display carrier, and its junction to IGF-I
T8 chain: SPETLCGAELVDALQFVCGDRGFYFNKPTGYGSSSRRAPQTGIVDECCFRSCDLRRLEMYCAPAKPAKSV
Protocol: as §1, §2

[9] = target: T9, IGF-I E9A (G1S-A70V background) displayed on phage (human; bacteriophage M13)
T9 construct: monovalent M13 phage display
T9 chain: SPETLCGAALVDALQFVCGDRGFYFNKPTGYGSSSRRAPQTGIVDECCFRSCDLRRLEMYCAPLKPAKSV
Protocol: as §1, §2

[10] = target: T10, IGF-I S1A (G1S-A70V background) displayed on phage (human; bacteriophage M13)
T10 construct: range 249-406; monovalent M13 phage display
Protocol: as §1, §2

[11] = target: IGF-I V70A (G1S-A70V background) displayed on phage (human; bacteriophage M13, UniProt P69168 267-424)
Protocol: as §1, §2

[12] = target: T11, IGF-I P2A (G1S-A70V background) displayed on phage (human; bacteriophage M13)
T11 construct: range 249-406; monovalent M13 phage display
Protocol: as §1, §2

[13] = target: T12, IGF-I L10A (G1S-A70V background) displayed on phage (human; bacteriophage M13)
T12 construct: monovalent M13 phage display
T12 chain: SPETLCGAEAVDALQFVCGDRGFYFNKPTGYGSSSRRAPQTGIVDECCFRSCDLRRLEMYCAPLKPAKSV
Protocol: as §1, §2

[14] = target: T13, IGF-I G30A (G1S-A70V background) displayed on phage (human; bacteriophage M13)
T13 construct: monovalent M13 phage display; not shown: M13 gene III fragment (residues 249-406, display partner) and the junction to it
T13 chain: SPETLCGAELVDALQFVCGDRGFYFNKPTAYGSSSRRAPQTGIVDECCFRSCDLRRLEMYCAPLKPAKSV
Protocol: as §1, §2

[15] = target: T14, IGF-I D45A (G1S-A70V background) displayed on phage (human; bacteriophage M13)
T14 construct: monovalent M13 phage display
T14 chain: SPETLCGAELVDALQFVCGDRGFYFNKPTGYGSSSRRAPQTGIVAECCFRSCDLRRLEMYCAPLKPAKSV
Protocol: as §1, §2

B1: human IGFBP-1 (other, UniProt P08833 26-259, looked up)
chain: APWQCAPCSAEKLALCPPVSASCSEVTRSAGCGCCPMCALPLGAACGVATARCARGLSCRALPGEQQPLHALTRGQGACVQESDASAPHAAEAGSPESPESTEITEEELLDNFHLMAPSEEDHSILWDAISTYDGSKALHVTNIKKWKEPCRIELYRVVESLAKAQETSGEEISKFYLPNCNKNGFYHSRQCETSMDGEAGLCWCVYPWNGKRIPGSPEIRGDPNCQIYFNVQN
notes: secreted recombinant protein purified from conditioned medium
For B1, the IC50 [1] was 4.3 nM, the IC50 [2] was 36.7 nM and the IC50 [3] was 15.9 nM. For the same binder, the IC50 [4] was 9 nM, the IC50 [5] was 9.1 nM and the IC50 [6] was 7.9 nM. The IC50 [7] was 7.1 nM, the IC50 [8] was 12.1 nM and the IC50 [9] was 8.6 nM. It also gave an IC50 [10] of 5.2 nM, an IC50 [11] of 19.1 nM and an IC50 [12] of 11 nM. The IC50 [13] was 311 nM, the IC50 [14] was 7.1 nM and the IC50 [15] was 4.7 nM.

Source: patent US20020160955A1 (published 2002)
